{"source": "patent US20210332339", "about": "“NOVEL NUCLEASE DOMAIN AND USE THEREOF” (HIROSHIMA UNIVERSITY, published 2021)", "key": {"ZFA36-ND1-RRR": {"biological_target": "ZFA36-ND1-RRR (Artificial)", "sequence (chain, as listed by the source)": "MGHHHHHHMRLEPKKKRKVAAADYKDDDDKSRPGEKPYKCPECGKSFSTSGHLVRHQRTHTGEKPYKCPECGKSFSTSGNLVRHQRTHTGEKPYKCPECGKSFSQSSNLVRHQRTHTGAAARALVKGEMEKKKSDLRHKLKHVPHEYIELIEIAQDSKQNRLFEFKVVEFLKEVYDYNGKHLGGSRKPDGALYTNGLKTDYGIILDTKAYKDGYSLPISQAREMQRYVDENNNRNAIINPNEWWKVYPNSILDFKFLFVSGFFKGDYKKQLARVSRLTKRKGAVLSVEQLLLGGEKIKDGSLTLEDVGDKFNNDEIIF", "test": "cell_activity; SSA, ZFL1-6bp-ZFA36, paired with ND1-DDD; about 60% with FokI-DDD; alone almost inactive", "conditions": "D489R/N543R", "description": "(§1) Genes to Cells 15: 875-885). To a 96-well multiwell plate (Iwaki) treated with polylysine coat, 25 μL of serum-free D-MEM culture solution was added, and 6 μL of plasmid solution was mixed. To this, 25.7 μL of a solution containing 0.7 μL of Lipofectamine LTX (Life Technologies) per 25 μL of serum-free D-MEM culture solution was added, and the mixture was allowed to stand at room temperature for 30 minutes. During this period, HEK293T cells were dissociated from a 100 mm tissue culture dish (Iwaki) by trypsin treatment, centrifuged at 1000 rpm for 3 minutes, the supernatant was removed, and the cells were suspended again in 5 mL of the culture solution. A 10 μL cell suspension was dispensed, and the number of cells was counted. […]\n(§2) Furthermore, in order to functionally convert the amino acids of the novel nuclease domains corresponding to the amino acids (D483, R487, and N496) involved in the heterodimerization of FokI-ND to the DDD-type, each pSTL-hPGRN_ZFL1-ND was used as a template and a primer pair was used to perform PCR by PrimeSTAR Max. […] Note that the amount of each ZFN plasmid in 7.2 μL of the plasmid solution used in the SSA reporter assay was changed to 120 ng for the target half-site L and 120 ng for the target half-site R. In addition, nuclease activity was measured by the Cel-I assay in the same manner as described in Example 3."}, "ZFL1-ND1-DDD": {"biological_target": "ZFL1-ND1-DDD (Artificial)", "sequence (chain, as listed by the source)": "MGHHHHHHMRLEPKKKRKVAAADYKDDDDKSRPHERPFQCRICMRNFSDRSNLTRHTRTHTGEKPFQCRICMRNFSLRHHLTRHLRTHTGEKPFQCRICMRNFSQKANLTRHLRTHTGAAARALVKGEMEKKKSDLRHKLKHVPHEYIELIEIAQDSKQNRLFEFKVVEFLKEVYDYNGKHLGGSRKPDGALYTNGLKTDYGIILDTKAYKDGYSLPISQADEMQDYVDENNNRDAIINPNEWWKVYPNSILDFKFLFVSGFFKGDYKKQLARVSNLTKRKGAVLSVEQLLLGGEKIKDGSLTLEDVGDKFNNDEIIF", "test": "cell_activity; SSA, ZFL1-6bp-ZFA36, paired with ND1-RRR; about 80% with FokI-RRR; alone almost inactive", "conditions": "R493D/N502D", "description": "as §1, §2"}, "ZFA36-ND1": {"biological_target": "ZFA36-ND1 (Artificial (ND1 from Bacillus sp. …))", "test": "cell_activity; Cel-I assay CHO-K1, stated for the sites overall", "conditions": "tags: TGAAARA linker; residues from the E. coli expression version (His/NLS); chain copies: 2 inferred"}}, "data": [{"binder": "ZFA36 half-site (dsDNA) DNA 1: GAAGATGGT DNA 2: ACCATCTTC", "values": [{"measurement": "binding signal", "setting": "ZFA36-ND1-RRR", "result": "~1.6", "unit": "fold"}]}, {"binder": "ZFL1 half-site (dsDNA) DNA 1: GAAGGTGAC DNA 2: GTCACCTTC", "values": [{"measurement": "binding signal", "setting": "ZFL1-ND1-DDD", "result": "~1.6", "unit": "fold"}]}, {"binder": "ZFA36-ZFA36 CHO-K1 3rd site (dsDNA) DNA 1: ACCATCTTCCTTGATGAAGATGCC DNA 2: GGCATCTTCATCAAGGAAGATGGT", "values": [{"measurement": "binding signal", "setting": "ZFA36-ND1", "result": "~1.5 fold of FokI-ND"}]}]}
